In US20150023971A1:

Experiments:
[1] = target: T1, recombinant his-S-tagged pro-domain of human BDNF (residues Ala1-Arg110), from pET-30 Xa/LIC, E. coli (human) (UniProt P23560); assay: SPR (Biacore 2000), 390 nM Sortilin over immobilised pro-domain (˜300 fmol/mm2)
T1 sequence: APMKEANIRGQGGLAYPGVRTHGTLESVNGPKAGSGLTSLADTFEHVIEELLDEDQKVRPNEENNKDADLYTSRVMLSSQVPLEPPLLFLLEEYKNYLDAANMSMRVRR

[2] = target: purified human Sortilin extracellular domain (produced in stably transfected CHO cells) (human) (UniProt Q99523); assay: SPR (Biacore), 25-500 nM propeptide over immobilised Sortilin extracellular domain
[3] = target: purified human Sortilin extracellular domain (produced in stably transfected CHO cells) (human) (UniProt Q99523); assay: SPR (Biacore) competition, inhibitor prebound, then coinjected with 200 nM proNGF over immobilised Sortilin
[4] = target: his-tagged sortilin luminal domain, mutant F165A (human) (UniProt Q99523); assay: SPR (Biacore), mutant immobilised on CM5, GST-pro-dom-NGF 10-50 nM, 1:1 fit
[5] = target: his-tagged sortilin luminal domain, mutant F170A (human) (UniProt Q99523); assay: as above
[6] = target: his-tagged sortilin luminal domain, mutant F174A (human) (UniProt Q99523); assay: as above
[7] = target: his-tagged sortilin luminal domain, mutant K172A (human) (UniProt Q99523); assay: as above
[8] = target: his-tagged sortilin luminal domain, mutant R160A (human) (UniProt Q99523); assay: as above
[9] = target: his-tagged sortilin luminal domain, mutant R163A (human) (UniProt Q99523); assay: as above
[10] = target: his-tagged sortilin luminal domain, mutant R166A (human) (UniProt Q99523); assay: as above
Sequence of his-tagged sortilin luminal domain, mutant R166A (human) (Q99523 other isoform, or with tags, fused parts or gaps R166A R166A limits assumed): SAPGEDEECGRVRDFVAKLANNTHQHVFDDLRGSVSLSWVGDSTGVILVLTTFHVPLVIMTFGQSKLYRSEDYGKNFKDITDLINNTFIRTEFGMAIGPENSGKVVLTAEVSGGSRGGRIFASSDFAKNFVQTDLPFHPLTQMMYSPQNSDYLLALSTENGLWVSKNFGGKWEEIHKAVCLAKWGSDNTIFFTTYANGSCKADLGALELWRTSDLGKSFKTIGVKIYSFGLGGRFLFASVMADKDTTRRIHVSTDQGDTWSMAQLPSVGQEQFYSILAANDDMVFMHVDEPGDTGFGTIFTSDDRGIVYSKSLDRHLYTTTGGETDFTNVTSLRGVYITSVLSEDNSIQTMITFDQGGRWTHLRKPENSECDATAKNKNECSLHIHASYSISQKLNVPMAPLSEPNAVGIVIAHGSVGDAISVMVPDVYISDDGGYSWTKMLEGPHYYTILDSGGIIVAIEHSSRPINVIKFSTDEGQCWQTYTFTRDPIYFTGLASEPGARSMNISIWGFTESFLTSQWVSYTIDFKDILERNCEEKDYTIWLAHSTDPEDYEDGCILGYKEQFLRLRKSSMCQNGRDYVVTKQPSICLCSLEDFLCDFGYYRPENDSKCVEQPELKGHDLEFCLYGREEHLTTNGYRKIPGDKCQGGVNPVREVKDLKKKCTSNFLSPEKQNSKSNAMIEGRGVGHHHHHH

Sequence of purified human Sortilin extracellular domain (produced in stably transfected CHO cells) (human) (Q99523 78-755 V650M limits assumed): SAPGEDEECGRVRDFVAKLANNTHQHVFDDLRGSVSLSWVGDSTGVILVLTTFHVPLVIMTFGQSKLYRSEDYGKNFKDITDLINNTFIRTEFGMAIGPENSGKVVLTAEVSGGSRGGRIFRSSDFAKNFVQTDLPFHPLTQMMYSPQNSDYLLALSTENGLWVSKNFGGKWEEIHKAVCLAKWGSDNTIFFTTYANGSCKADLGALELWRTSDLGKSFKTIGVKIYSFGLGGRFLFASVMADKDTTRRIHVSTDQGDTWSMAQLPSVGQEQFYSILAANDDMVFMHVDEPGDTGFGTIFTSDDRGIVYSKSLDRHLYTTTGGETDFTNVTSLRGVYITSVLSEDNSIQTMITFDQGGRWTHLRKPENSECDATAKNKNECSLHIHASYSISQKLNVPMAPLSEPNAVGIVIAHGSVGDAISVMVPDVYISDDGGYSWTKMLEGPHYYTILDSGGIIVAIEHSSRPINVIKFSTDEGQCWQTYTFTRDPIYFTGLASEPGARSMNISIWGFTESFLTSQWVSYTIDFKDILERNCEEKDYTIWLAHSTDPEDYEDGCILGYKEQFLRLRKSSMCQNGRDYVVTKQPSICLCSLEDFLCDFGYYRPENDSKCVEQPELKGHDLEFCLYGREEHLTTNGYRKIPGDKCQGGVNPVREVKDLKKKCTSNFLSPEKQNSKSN
Sequence of his-tagged sortilin luminal domain, mutant R160A (human) (Q99523 other isoform, or with tags, fused parts or gaps R160A R160A limits assumed): as the sequence (Q99523 other isoform, or with tags, fused parts or gaps R166A R166A limits assumed) above, with R116A, A122R counted along it
Sequence of his-tagged sortilin luminal domain, mutant F174A (human) (Q99523 other isoform, or with tags, fused parts or gaps F174A F174A limits assumed): as the sequence (Q99523 other isoform, or with tags, fused parts or gaps R166A R166A limits assumed) above, with A122R, F130A counted along it
Sequence of his-tagged sortilin luminal domain, mutant F165A (human) (Q99523 other isoform, or with tags, fused parts or gaps F165A F165A limits assumed): as the sequence (Q99523 other isoform, or with tags, fused parts or gaps R166A R166A limits assumed) above, with F121A, A122R counted along it
Sequence of his-tagged sortilin luminal domain, mutant K172A (human) (Q99523 other isoform, or with tags, fused parts or gaps K172A K172A limits assumed): as the sequence (Q99523 other isoform, or with tags, fused parts or gaps R166A R166A limits assumed) above, with A122R, K128A counted along it
Sequence of his-tagged sortilin luminal domain, mutant R163A (human) (Q99523 other isoform, or with tags, fused parts or gaps R163A R163A limits assumed): as the sequence (Q99523 other isoform, or with tags, fused parts or gaps R166A R166A limits assumed) above, with R119A, A122R counted along it
Sequence of his-tagged sortilin luminal domain, mutant F170A (human) (Q99523 other isoform, or with tags, fused parts or gaps F170A F170A limits assumed): as the sequence (Q99523 other isoform, or with tags, fused parts or gaps R166A R166A limits assumed) above, with A122R, F126A counted along it
Sequence of recombinant human Sortilin ectodomain with C-terminal poly-histidine tag (pCEP-Pu, EBNA293/HEK293 cells), ending at Ser725 (Q99523 other isoform, or with tags, fused parts or gaps limits assumed): as the sequence (Q99523 other isoform, or with tags, fused parts or gaps R166A R166A limits assumed) above, with A122R counted along it

**Q.** With “recombinant human Sortilin ectodomain with C-terminal poly-histidine tag (pCEP-Pu, EBNA293/HEK293 cells), ending at Ser725 (from UniProt Q99523 78-755) (receptor)” as the substance, how does the response (RU) [1] read?
**A.** 300 RU

**Q.** What does the source list for “human NGF-propeptide expressed in E. coli”?
**A.** Kd [2]: 8 nM; percent inhibition of proNGF binding to Sortilin [3]: 85%

**Q.** What does the source list for “GST-NGF-pro-domain fusion protein (Nykjaer et al., Nature 2004) (from UniProt P01138 19-121)”?
**A.** Kd [4]: 3.86 nM; Kd [5]: 5.59 nM; Kd [6]: 4.27 nM; Kd [7]: 3.91 nM; Kd [8]: 1.89 nM; kon [8]: 147000 M⁻¹ s⁻¹; Kd [9]: 2.7 nM; Kd [10]: 4.38 nM
